Common to all, as to assay: EMSA; EMSA: 50 mM NaCl, 10 mM Tris-HCl pH 8.0, 10% glycerol; protein 0-2000 nM; 30 min at 30 °C then 30 min at room temperature; 6% native PAGE in 0.5x TBE; 3 replicates
Holding throughout (details): protein: recombinant; tags: N-terminal Strep-Tag II, C-terminal 10xHis; label: IRDye 700
For orientation: Mobility shift assays separate free from complexed probe on a gel.

One series concerns the target T1, TBX5 T-box domain I54T (human? (UniProt Q99593 used for …, UniProt Q99593 48-248, I54T)).
T1 sequence: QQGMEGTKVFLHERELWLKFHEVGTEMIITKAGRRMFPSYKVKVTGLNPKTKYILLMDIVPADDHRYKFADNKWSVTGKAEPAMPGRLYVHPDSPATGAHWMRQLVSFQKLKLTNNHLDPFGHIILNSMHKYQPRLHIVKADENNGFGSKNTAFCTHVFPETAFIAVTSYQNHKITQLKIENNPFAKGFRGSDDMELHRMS

A further series concerns the target T2, TBX5 T-box domain R237W (human? (UniProt Q99593 used for …, UniProt Q99593 48-248, R237W)).
T2 sequence: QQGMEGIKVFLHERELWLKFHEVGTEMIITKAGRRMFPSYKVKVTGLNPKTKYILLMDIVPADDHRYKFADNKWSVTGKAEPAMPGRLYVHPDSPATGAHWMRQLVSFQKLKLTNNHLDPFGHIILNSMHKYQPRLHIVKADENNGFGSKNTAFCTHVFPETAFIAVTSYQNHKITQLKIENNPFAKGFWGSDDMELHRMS

The next series has as its target T3, TBX5 T-box domain M74V (human? (UniProt Q99593 used for …, UniProt Q99593 48-248, M74V)).
T3 sequence: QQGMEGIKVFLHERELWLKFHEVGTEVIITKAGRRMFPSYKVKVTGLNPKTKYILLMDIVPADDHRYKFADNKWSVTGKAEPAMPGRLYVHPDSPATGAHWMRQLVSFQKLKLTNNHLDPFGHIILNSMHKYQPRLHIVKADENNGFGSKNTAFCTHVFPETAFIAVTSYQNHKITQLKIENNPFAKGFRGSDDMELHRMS

A further series has as its target T4, TBX5 T-box domain R113K (human? (UniProt Q99593 used for …, UniProt Q99593 48-248, R113K)).
T4 sequence: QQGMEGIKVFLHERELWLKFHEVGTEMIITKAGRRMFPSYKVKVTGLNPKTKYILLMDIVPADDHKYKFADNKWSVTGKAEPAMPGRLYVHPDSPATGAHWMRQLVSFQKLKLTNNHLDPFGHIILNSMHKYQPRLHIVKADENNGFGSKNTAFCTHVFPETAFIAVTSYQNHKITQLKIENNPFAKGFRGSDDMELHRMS

The next series has as its target T5, TBX5 T-box domain I101F (human? (UniProt Q99593 used for …, UniProt Q99593 48-248, I101F)).
T5 sequence: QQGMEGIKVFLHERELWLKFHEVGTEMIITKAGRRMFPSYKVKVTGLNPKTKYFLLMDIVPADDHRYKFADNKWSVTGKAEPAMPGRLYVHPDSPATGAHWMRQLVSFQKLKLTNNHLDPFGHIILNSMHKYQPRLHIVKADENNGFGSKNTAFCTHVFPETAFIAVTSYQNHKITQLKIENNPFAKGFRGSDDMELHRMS

B1: Nppa (ANF) promoter probe (dsDNA)
DNA 1: CCCGGTTTTGTGATTCTCTCTCTCACACCTTCAGCAGGAACGTGCCAATGCCGCCGTAAG
DNA 2: CTTACGGCGGCATTGGCACGTTCCTGCTGAAGGTGTGAGAGAGAGAATCACAAAACCGGG
On to B1, for which the binding signal with TBX5 T-box domain I54T was -1.65 fold change in Bmax vs WT; with TBX5 T-box domain R237W it was -3.76 fold change in Bmax vs WT; in the series with TBX5 T-box domain M74V it was -3.27 fold change in Bmax vs WT; with TBX5 T-box domain R113K it was -2.87 fold change in Bmax vs WT; in the series with TBX5 T-box domain I101F, -1.26 fold change in Bmax vs WT.

B2: Camta1 promoter probe (dsDNA)
DNA 1: GCAGATCTCCTGCTGGGCTGACACCTCACTATCGCAGAACCGTGCCAATGCCGCCGTAAG
DNA 2: CTTACGGCGGCATTGGCACGGTTCTGCGATAGTGAGGTGTCAGCCCAGCAGGAGATCTGC
With B2, the binding signal with TBX5 T-box domain I54T was -1.34 fold change in Bmax vs WT; with TBX5 T-box domain R237W, -10.5 fold change in Bmax vs WT; with TBX5 T-box domain M74V it was -2.93 fold change in Bmax vs WT; with TBX5 T-box domain R113K, -1.49 fold change in Bmax vs WT; in the series with TBX5 T-box domain I101F it was -1.38 fold change in Bmax vs WT.

The record behind these values is paper PMC12588321, “Congenital heart disease missense mutations in the TBX5 DNA-binding domain alter thermal stability and DNA-binding affinity”.
